Reference: PMC9302186, “Defining variant-resistant epitopes targeted by SARS-CoV-2 antibodies: A global consortium study” (Science (New York, N.y.), 2021)

Molecular target: T1, SARS-CoV-2 spike receptor binding domain, monomeric (SARS-CoV-2, UniProt P0DTC2)
T1 construct: also called RBD; monomeric RBD
Assay: SPR
Conditions: both partners purified

B1: CoVIC-259 (antibody, V domains shown)
VH: EVQLVESGGGVVQPGRSLRLSCAASGFTFSSYAMHWVRQAPGKGLEWVAVLSYDGSNKYNADSVKGRFTISRDNSKNTLYLQMNSLRVEDTAMYYCARDGVSVTMVRGVIGPLCDYWGQGTLVTVSS
VL: not shown
notes: also called RBD-1 community representative
Question: Does B1 bind?
Answer: binds
